Results published in US20250179172A1.

Tests used:
[1] = biological target: human CD5, full length, on cells (Jurkat, endogenous; CHO-K1-human CD5, transfected) (human) (UniProt P06127); assay: FACS on CHO-K1-hCD5-2B2 cells
[2] = biological target: human CD5, full length, on cells (Jurkat, endogenous; CHO-K1-human CD5, transfected) (human) (UniProt P06127); assay: FACS on Jurkat cells
[3] = biological target: murine CD5-His (Sino Biologicals, Cat. No. 50403-M08H) (murine) (UniProt P13379); assay: ELISA on murine CD5-His, antibody 10.00 nM
[4] = biological target: murine CD5-His (Sino Biologicals, Cat. No. 50403-M08H) (murine) (UniProt P13379); assay: ELISA on murine CD5-His, antibody 1.00 nM
[5] = biological target: human CD5, full length, on cells (Jurkat, endogenous; CHO-K1-human CD5, transfected) (human) (UniProt P06127); assay: FACS on CHO-K1-hCD5-2E2 cells
[6] = biological target: murine CD5-His (Sino Biologicals, Cat. No. 50403-M08H) (murine) (UniProt P13379); assay: ELISA on murine CD5-His, antibody 0.10 nM
[7] = biological target: murine CD5-His (Sino Biologicals, Cat. No. 50403-M08H) (murine) (UniProt P13379); assay: ELISA on murine CD5-His, antibody '0.000' nM as printed
[8] = biological target: human CD5 (Arg25-Pro372)-His protein (Acro, Cat. No. CD5-H52H5) (human) (UniProt P06127); assay: ELISA on hCD5-His, antibody 1 nM
[9] = biological target: monkey CD5, full length, on HEK293T cells (monkey); assay: FACS on HEK293T-monkey CD5 cells
[10] = biological target: human CD5 (Arg25-Pro372)-His protein (Acro, Cat. No. CD5-H52H5) (human) (UniProt P06127); assay: ELISA on hCD5-His, antibody 0.01 nM
[11] = biological target: murine CD5-His (Sino Biologicals, Cat. No. 50403-M08H) (murine) (UniProt P13379); assay: ELISA on murine CD5-His, antibody 100.00 nM
[12] = biological target: human CD5, full length, on cells (Jurkat, endogenous; CHO-K1-human CD5, transfected) (human) (UniProt P06127); assay: FACS on CHO-K1-human CD5 cells
[13] = biological target: human CD5 (Arg25-Pro372)-His protein (Acro, Cat. No. CD5-H52H5) (human) (UniProt P06127); assay: ELISA on hCD5-His, antibody 10 nM
[14] = biological target: murine CD5-His (Sino Biologicals, Cat. No. 50403-M08H) (murine) (UniProt P13379); assay: ELISA on murine CD5-His, antibody 0.01 nM
[15] = biological target: human CD5 (Arg25-Pro372)-His protein (Acro, Cat. No. CD5-H52H5) (human) (UniProt P06127); assay: ELISA on hCD5-His, antibody 100 nM
[16] = biological target: human CD5, full length, on cells (Jurkat, endogenous; CHO-K1-human CD5, transfected) (human) (UniProt P06127); assay: FACS on CHO-K1-hCD5-2F8 cells
[17] = biological target: human CD5, full length, on cells (Jurkat, endogenous; CHO-K1-human CD5, transfected) (human) (UniProt P06127); assay: FACS on CHO-K1-hCD5-2C6 cells
[18] = biological target: murine CD5-His (Sino Biologicals, Cat. No. 50403-M08H) (murine) (UniProt P13379); assay: ELISA on murine CD5-His, antibody 0.001 nM
[19] = biological target: human CD5 (Arg25-Pro372)-His protein (Acro, Cat. No. CD5-H52H5) (human) (UniProt P06127); assay: ELISA on hCD5-His, antibody 0.1 nM
[20] = biological target: human CD5 (Arg25-Pro372)-His protein (Acro, Cat. No. CD5-H52H5) (human) (UniProt P06127); assay: ELISA on hCD5-His, antibody 0.001 nM
[21] = biological target: human CD5 (Arg25-Pro372)-His protein (Acro, Cat. No. CD5-H52H5) (human) (UniProt P06127); assay: ELISA on hCD5-His, antibody 0.0001 nM

Sequence of UniProt P13379 (P13379 24-371 limits assumed, stated change not applied): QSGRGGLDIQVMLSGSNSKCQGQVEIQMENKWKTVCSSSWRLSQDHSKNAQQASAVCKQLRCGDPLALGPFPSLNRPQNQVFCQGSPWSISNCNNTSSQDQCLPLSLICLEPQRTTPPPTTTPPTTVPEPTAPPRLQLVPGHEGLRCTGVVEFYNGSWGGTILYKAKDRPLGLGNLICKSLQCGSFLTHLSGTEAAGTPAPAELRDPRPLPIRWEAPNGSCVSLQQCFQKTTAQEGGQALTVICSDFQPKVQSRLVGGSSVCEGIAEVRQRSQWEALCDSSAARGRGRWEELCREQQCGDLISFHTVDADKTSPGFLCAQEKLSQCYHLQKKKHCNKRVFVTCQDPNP
Sequence of monkey CD5, full length, on HEK293T cells (monkey) (chain, as listed by the source limits assumed): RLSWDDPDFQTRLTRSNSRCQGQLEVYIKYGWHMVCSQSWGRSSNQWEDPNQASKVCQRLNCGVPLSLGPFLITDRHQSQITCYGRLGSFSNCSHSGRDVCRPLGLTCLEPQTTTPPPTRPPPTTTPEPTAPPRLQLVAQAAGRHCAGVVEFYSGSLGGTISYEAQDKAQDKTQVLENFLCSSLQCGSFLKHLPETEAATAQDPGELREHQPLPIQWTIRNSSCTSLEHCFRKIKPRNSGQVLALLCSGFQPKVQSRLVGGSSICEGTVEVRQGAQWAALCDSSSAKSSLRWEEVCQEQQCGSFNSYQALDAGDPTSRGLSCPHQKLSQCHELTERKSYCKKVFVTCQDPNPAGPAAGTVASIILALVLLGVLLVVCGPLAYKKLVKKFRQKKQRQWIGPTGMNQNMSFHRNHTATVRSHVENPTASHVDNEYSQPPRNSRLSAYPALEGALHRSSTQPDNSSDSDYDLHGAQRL

Mean fluorescence intensity of cells [1]: 65.9 MFI
Max MFI [2]: 62 MFI
Mean fluorescence intensity of cells [2]: 97 MFI
OD450 [3]: 0.12 OD450
OD450 [4]: 0.11 OD450
Mean fluorescence intensity of cells [5]: 65.9 MFI
OD450 [6]: 0.11 OD450
OD450 [7]: 0.11 OD450
OD450 [8]: 0.05 OD450
Max MFI [9]: 79 MFI
OD450 [10]: 0.05 OD450
OD450 [11]: 0.12 OD450
Max MFI [12]: 93 MFI
OD450 [13]: 0.05 OD450
OD450 [14]: 0.11 OD450
OD450 [15]: 0.06 OD450
Mean fluorescence intensity of cells [16]: 65.9 MFI
Mean fluorescence intensity of cells [17]: 65.9 MFI
OD450 [18]: 0.11 OD450
OD450 [19]: 0.05 OD450
OD450 [20]: 0.05 OD450
OD450 [21]: 0.05 OD450
Substance: Anti-HEL-hIgG1 (antibody against hen egg lysozyme, Biointron Cat. No. B117901)
